Publication PMC12647727

Biological target: FcRn β2-microglobulin complex (UniProt P55899)
Assay: BLI

Kd: 6.2 nM
Substance: single-chain IgG atezolizumab (scAtezo) (antibody)
